In assay [1] the target is T1, human LILRB4 (human, UniProt Q8NHJ6 22-259, limits assumed).
T1 construct: also called leukocyte immunoglobulin-like receptor subfamily B member 4
Briefly: ELISA.

Assay [2] concerns the target T1, human LILRB4. Briefly: ELISA, OD450 against antibody concentration.
The target of assay [3] is T1, human LILRB4. Put plainly: ELISA, OD450 against antibody concentration. The source holds these as a separate data set. In general terms: In an ELISA, binding on a coated surface is turned into a signal by an enzyme label.
In another assay the target is T2, LILRB1 (human, UniProt Q8NHL6 24-458, limits assumed).
T2 construct: also called leukocyte immunoglobulin-like receptor subfamily B member 1
Put plainly: cross-reactivity test on the LILRBs (ELISA per paragraph 433).

Assay [4] deals with T3, LILRB2 (human, UniProt Q8N423 22-458, limits assumed).
T3 construct: also called leukocyte immunoglobulin-like receptor subfamily B member 2
Described as above.

Assay [5] has as its target T4, LILRB3 (human, UniProt O75022 24-443, limits assumed).
T4 construct: also called leukocyte immunoglobulin-like receptor subfamily B member 3
Described as above.

Assay [6] has as its target T5, LILRB5 (human, UniProt O75023 24-458, limits assumed). Described as above.
For a further assay, the target named is T6, D2.
T6 construct: also called LILRB4 D2-hIgG1-Fc; second Ig-like domain of LILRB4 as Fc fusion
Put plainly: matrix of binding to LILRB4 domain-Fc fusions (FIG. 47); ELISA per paragraph 433.

A further assay deals with T7, SR.
T7 construct: also called LILRB4 SR-hIgG1-Fc; stalk region of LILRB4 as Fc fusion
The description is as above.

Assay [7] deals with T1, human LILRB4. Put plainly: ELISA, OD450 against antibody concentration. This is another data set of the same source.
The target of assay [8] is T1, human LILRB4. Put plainly: ELISA, OD450 against antibody concentration. This is another data set of the same source.
The target in assay [9] is T1, human LILRB4. Briefly: ELISA, OD450 against antibody concentration. This is another data set of the same source.
For assay [10], the target named is T1, human LILRB4. Briefly: reactivity table, assay not named on the sheet.
Assay [11] has as its target T4, LILRB3. Briefly: reactivity table, assay not named on the sheet.
Assay [12] concerns the target T5, LILRB5. Put plainly: reactivity table, assay not named on the sheet.
The target in assay [13] is T3, LILRB2. Put plainly: flow cytometry on LILRB2-overexpressing 293T cells, mAb at 2 ug/ml. Background: A flow cytometer gives signals particle by particle.
Assay [14] deals with T4, LILRB3. Put plainly: cross-reactivity ELISA (FIG. 46).
Assay [15] concerns the target T5, LILRB5. Put plainly: cross-reactivity ELISA (FIG. 46).
Assay [16] deals with T1, human LILRB4. Briefly: ELISA, OD450 against antibody concentration. This is another data set of the same source.
For assay [17], the target named is T1, human LILRB4. Briefly: ELISA, OD450 against antibody concentration. The source holds these as a separate data set.
In another assay the target is T8, LILRB4-ECD-Fc (human, UniProt Q8NHJ6 27-259).
T8 construct: also called LILRB4-Fc; LILRB4 ECD-Fc fusion protein; not shown: Fc part
Briefly: ELISA, mAb titrated.

Assay [18] deals with T9, LILRB4 D1 (first Ig-like domain) Fc fusion protein (human, UniProt Q8NHJ6 27-118).
T9 construct: also called D1 of LILRB4; not shown: Fc part
Briefly: ELISA, mAb titrated.

Assay [19] concerns the target T1, human LILRB4. Briefly: ELISA, OD450 against antibody concentration. The source holds these as a separate data set.
In assay [20] the target is T1, human LILRB4. Briefly: ELISA, mAb titrated on the WT protein of the LILRB4 mutant series of FIG. 52 (construct limits not stated).

Positions count from the first letter of the chain named.

T3 sequence (Q8N423 22-458 limits assumed): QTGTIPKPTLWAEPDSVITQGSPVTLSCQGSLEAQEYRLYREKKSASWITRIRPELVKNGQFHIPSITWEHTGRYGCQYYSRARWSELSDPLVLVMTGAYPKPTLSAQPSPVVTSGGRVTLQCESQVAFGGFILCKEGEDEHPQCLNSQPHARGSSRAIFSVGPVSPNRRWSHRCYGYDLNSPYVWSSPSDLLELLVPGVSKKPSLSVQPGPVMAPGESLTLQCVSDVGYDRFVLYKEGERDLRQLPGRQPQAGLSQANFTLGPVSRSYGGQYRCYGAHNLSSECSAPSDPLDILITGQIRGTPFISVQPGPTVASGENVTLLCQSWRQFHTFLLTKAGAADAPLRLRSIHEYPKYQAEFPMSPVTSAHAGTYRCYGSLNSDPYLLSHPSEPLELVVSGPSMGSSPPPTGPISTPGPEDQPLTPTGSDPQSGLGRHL
T5 sequence (O75023 24-458 limits assumed): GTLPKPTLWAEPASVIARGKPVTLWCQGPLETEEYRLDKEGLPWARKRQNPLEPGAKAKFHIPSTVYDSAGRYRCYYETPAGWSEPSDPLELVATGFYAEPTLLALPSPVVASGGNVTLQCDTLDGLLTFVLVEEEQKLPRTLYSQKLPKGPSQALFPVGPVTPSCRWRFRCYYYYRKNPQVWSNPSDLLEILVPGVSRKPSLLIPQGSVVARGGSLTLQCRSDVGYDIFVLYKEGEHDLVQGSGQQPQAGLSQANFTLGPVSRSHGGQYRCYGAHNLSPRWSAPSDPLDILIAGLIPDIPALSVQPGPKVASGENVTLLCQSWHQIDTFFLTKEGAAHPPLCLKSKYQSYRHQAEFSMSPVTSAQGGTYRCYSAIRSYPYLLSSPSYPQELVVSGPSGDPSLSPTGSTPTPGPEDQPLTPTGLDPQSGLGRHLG
T2 sequence (Q8NHL6 24-458 limits assumed): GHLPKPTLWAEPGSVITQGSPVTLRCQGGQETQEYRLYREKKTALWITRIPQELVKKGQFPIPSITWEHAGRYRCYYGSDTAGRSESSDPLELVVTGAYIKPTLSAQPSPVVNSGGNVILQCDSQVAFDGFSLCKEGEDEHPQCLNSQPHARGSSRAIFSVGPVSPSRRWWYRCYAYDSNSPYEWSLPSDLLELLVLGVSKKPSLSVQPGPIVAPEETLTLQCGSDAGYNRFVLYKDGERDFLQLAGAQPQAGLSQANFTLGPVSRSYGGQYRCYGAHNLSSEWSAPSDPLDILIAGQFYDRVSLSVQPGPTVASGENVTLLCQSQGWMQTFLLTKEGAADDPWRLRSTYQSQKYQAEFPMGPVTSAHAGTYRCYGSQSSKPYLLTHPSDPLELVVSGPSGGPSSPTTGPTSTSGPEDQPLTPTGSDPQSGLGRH
T7 sequence (fusion chain, as listed by the source): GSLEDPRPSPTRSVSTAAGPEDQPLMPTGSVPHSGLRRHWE
T6 sequence (fusion chain, as listed by the source): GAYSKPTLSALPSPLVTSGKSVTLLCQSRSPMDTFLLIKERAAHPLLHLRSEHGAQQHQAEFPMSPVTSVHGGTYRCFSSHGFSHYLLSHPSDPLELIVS
T4 sequence (O75022 24-443 limits assumed): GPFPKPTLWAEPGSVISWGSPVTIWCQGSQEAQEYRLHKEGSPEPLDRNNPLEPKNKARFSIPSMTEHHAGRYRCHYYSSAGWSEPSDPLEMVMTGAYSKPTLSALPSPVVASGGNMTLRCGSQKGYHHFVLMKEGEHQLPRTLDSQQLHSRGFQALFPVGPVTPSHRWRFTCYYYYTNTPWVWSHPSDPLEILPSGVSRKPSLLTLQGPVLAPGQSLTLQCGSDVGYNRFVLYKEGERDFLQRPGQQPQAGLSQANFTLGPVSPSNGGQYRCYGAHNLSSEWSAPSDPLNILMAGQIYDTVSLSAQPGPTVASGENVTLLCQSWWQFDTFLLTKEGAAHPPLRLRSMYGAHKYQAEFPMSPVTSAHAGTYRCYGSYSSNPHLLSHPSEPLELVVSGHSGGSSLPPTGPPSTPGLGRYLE
T9 sequence (Q8NHJ6 27-118): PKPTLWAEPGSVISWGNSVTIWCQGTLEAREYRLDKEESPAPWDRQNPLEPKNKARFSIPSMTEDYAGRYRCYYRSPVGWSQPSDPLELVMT

B1: anti-LILRB4 rabbit monoclonal antibody #6 (antibody, V domains shown)
VH: QSVKESGGRLVTPGTPLTLTCTASGFSLSTYYIDWVRQAPGRGLEYIGVINPGGSAVYATWAKGRFTISRTSTTVDLKMTSLTTEDTATYFCARGWSRGDLWGQGTLVTISS
VL: ELDMTQTPSPVSAAVGGTVTIKCQSSQNVYDDDTLSWYQQKPGQPPKLLIYDASKLASGVPSRFKGSGSGTQFTLTISGVQCDDAATYYCLGVFHDAADNAFGGGTELEIK
notes: Rabbit mAb
In general, EC50 refers to the concentration at which the effect is half-maximal. Read a high EC50 as weaker potency. On to B1, for which the results for the EC50 in the assay with human LILRB4 [1] and with human LILRB4 [2] were 76.7 pM and 0.0115 µg/mL, respectively.

B2: anti-LILRB4 rabbit monoclonal antibody #129 (antibody, V domains shown)
VH: EQSVKESGGGLVKPGASLTLTCTASGFSFSSSYHMCWVRQAPGKGLEWIGCIATGYGSTYYASWAKGRFTISKTSSTTVTLQVPSLTAADTATCFCARGYYRYTSDSYGYFDLWGPGTLVTISS
VL: ELVLTQTASPVSAAVGGTVTVNCQASQSISSGYLSWYQQKPGQPPKLLIYYASRLASGVPSRFSGSGSGTEYTLTISGVQCDDAATYYCLYVSYDGTTTDNAFGGGTEVEIK
Regarding B2, the figures for the EC50 with human LILRB4 [1] and with human LILRB4 [3] were 90.1 pM and 0.0135 µg/mL, respectively. The binding result in the assay with LILRB1, in the assay with LILRB2 [4], with LILRB3 [5], in the assay with LILRB5 [6], with D2 and in the assay with SR was “no binding” in each case.

B3: anti-LILRB4 rabbit monoclonal antibody #71-1 (antibody, V domains shown)
VH: QSVEESGGGLVKPGASLTLTCTASGFSFSSSYHMCWVRQAPGKGLEWIGCIATGYGSTYYASWAKGRFTISKTSSTTVTLQVPSLTAADTATCFCARGYYRYTSDSYGYFDLWGPGTLVTISS
VL: B2 VL with V3D, D95S, E108D
notes: Rabbit mAb
Regarding B3, the EC50 with human LILRB4 [1] was 134 pM; with human LILRB4 [7], 0.02 µg/mL.

B4: anti-LILRB4 rabbit monoclonal antibody #223 (antibody, V domains shown)
VH: EQSVKESGGRLVTPGTPLTLTCIVSGFSLNNYAISWVRQAPEKGLEWIGMIRSDGHVDYATWAKGRFTISKTSTTVDLKMTSLTTEDTATYFCARGGHFFNPWGPGTLVTISS
VL: ELVMTQTPSPVSAAVGGTVTISCQSSQTVYNYNELAWYQQKPGQPPKLLIDAASTLASGVPSRFSGSGSGTQFTLKISEVQCDDAATYYCQGTYYISGWYYTFGGGTEVVVK
notes: Rabbit mAb
For the molecule B4, the figures for the EC50 in the assay with human LILRB4 [1] and with human LILRB4 [8] were 89.7 pM and 0.0274 µg/mL, respectively.

B5: anti-LILRB4 rabbit monoclonal antibody #156-1 (antibody, V domains shown)
VH: QSVKESEGDLVKPGASLTLTCRASGFSFSSDYNMCWVRQAAGKGLEWIACIGVGTSGKTAYATWAKGRFTISRSSSTTVALQMTSLTVADTATYFCARPSYGSGGEGGGSGLWGPGTLVTISS
VL: ELDLTQTPASVSEPVGGTVTIKCQASQSIHSDLAWYQQKPGQRPKLLIYVASYLASGVPSRFSGSGSGTEYTLTISDLECADAATYYCQSTYYGSDYVGGAFGGGTEVVVK
notes: Rabbit mAb
Turning to B5, the EC50 in the assay with human LILRB4 [1] turned out to be 82.8 pM; with human LILRB4 [9] it was 0.0124 µg/mL.

B6: anti-LILRB mAb C39 (antibody, V domains shown)
VH: EVQLVESGGGLVQPGGSLKLSCAASGFTFSSYGMSWVRQTPDKRLELVATIDSNGGGTYYPDSVKGRFTISRDNAKNTLYLQMSSLKSEDTAMHYCARDGGGSYGYYYAMDYWGQGTSVTVSS
VL: DIVMSQSPSSLAVSAGEKVTMRCKSSQSLLNSRTRKSYLAWYQQKSGQSPKLLIYWASTRESGVPDRFTGSGSGTDFTLTISSVQAEDLAVYYCKQSYNLPWTFGGGTKLEIK
notes: mAb against LILRB2
As for B6, the binding result in the assay with human LILRB4 [10], with LILRB3 [11] and with LILRB5 [12] was “binds” throughout. Also, in the assay with LILRB2 [13], the “% of cells in the positive gate” value was determined as 18.7%.

B7: anti-LILRB4 rabbit monoclonal antibody #210 (antibody, V domains shown)
VH: EQSVEESGGRLVTPGTPLTLTCTVSGFSLSSYIMGWVRQARGKGLEYIGAINTDGATYYATWAKGRFTISRTSTTVHLKVTSPTTEDTATYFCARSLAPGDSNINLWGQGTLVTISS
VL: ELVLTQTPSPVSAAVGGTVTISCQSSESVYRNNRLAWYQQKPGQPPKRLIYLASTLASGVPSRFKGSGSGTQFTLTISDVQCDDAAAYYCAGDSGVGIIAFGGGTEVEIK
Turning to B7, the EC50 with human LILRB4 [1] came out at 99.7 pM; in the assay with human LILRB4 [16], 0.0149 µg/mL. Besides, the binding result was “binds” with LILRB3 [14]; “binds” with LILRB5 [15]; “no binding” in the assay with LILRB1; “no binding” in the assay with LILRB2 [4]; “no binding” with D2; “no binding” with SR.

B8: anti-LILRB4 rabbit monoclonal antibody #214 (antibody, V domains shown)
VH: QSVKESGGRLVTPGTPLTLTCTVSGFSLSSYWMHWVRQAPGKGLEWVGVVSVSGNFYYATWAKGRFTISKTSTTVDLKITSPTIEDTAFYFCTMSFALWGQGTLVTISS
VL: ELVMTQTASPVSAAVGGTVTINCQSSQSVYSNNNLGWLKQKPGQPPKELIYYASTLASGVPSRFKGSGSGTQFTLTISDLECDDAATYYCVGGYGCSSADCSVFGGGTEVEIK
notes: Rabbit mAb
In turn, B8 returned an EC50 with human LILRB4 [17] of 0.00764 µg/mL.

B9: anti-LILRB4 rabbit monoclonal antibody #128-3 (antibody, V domains shown)
VH: EQSLEESGGDLVTPGASLTLTCKASGIDFSNHYYIYWVRQAPGKGLEWIGCIFSGDSASTYYASWAKGRFTISKSSSPTVTLQMTSLTAADTATYFCARGMSTNDWASDLWGPGTMVTVSS
VL: ELVMTQTPASVSAAVGGTVTINCQASESINSIYLAWYQQKPGQRPKLLIYRASTLASGVSSRFKGSASGTGFTLTISDLECADAATYYCQQSYDWGDVENTFGGGTEVEIK
By EC50 (read off the curve) is commonly meant the concentration that produces a half-maximal response. Regarding B9, the EC50 is 184 pM with human LILRB4 [1] and 0.0276 µg/mL with human LILRB4 [19]. For the same molecule, the “EC50 (read off the curve)” value was roughly 0.02 µg/mL with LILRB4-ECD-Fc, roughly 0.02 µg/mL in assay [18] and roughly 0.01 µg/mL in the assay with human LILRB4 [20]. The binding result with LILRB1, in the assay with LILRB2 [4], with LILRB3 [5], in the assay with LILRB5 [6], with D2 and with SR was “no binding” each time.

The record behind these values is US20200079851A1 (University of Texas, published 2020).
